Where a chain is given by its changes, count along the chain named.

A word on the EC50: it is the concentration that produces a half-maximal response. Lower therefore signals higher potency in that assay. As usually defined, the Kd is a measure of binding affinity in units of concentration. By koff is commonly meant a measure of how fast the partners let go of each other. Broadly, the kon is the second-order rate constant of association.

Sequences and labels used below:
B1: C21H2L1 (antibody, human IgG1, kappa, V domains shown)
VH: EVQLVQSGAEVKKPGASVKVSCKASGYTFTDYYMNWVRQAPGQRLEWIGDINPNQGGTNYNQKFKGRATLTVDKSASTAYMELSSLRSEDTAVYYCASIIIVPNYFDYWGQGTTVTVSS
VL: DIQMTQSPSSLSASVGDRVTITCKASQNVDTNVAWFQQKPGKAPKSLIYSASYRYSGVPSRFSGSGSGTDFTLTISSLQPEDFATYYCQQYNNYPYTFGGGTKVEIKR
notes: also called Biotin-C21H2L1
B2: C28H6L1 (antibody, human IgG1, kappa, V domains shown)
VH: B1 VH with I48M, Q55T, G57V, N59T, A68V, L70I, N104D
VL: B1 VL with L11V, D30G, T31S, F36Y, A43S, S46A, N93S
notes: also called Biotin-C28H6L1
B3: CP-1 (bispecific antibody)
heavy: EVQLVESGGGLVQPGGSLRLSCAASGFAFNNYDMSWVRQAPGKGLEWVATITGGGSYTWYPDSVKGRFTISRDNAKNSLYLQMNSLRAEDTAVYYCARLTGYDQAGAMDYWGQGTTVTVSSASTKGPSVFPLAPSSKSTSGGTAALGCLVKDYFPEPVTVSWNSGALTSGVHTFPAVLQSSGLYSLSSVVTVPSSSLGTQTYICNVNHKPSNTKVDKKVEPKSCEVQLVQSGAEVKKPGASVKVSCKASGYTFTDYYMNWVRQAPGQCLEWIGDINPNQGGTNYNQKFKGRATLTVDKSASTAYMELSSLRSEDTAVYYCASIIIVPNYFDYWGQGTTVTVSSGGGGSGGGGSGGGGSDIQMTQSPSSLSASVGDRVTITCKASQNVDTNVAWFQQKPGKAPKSLIYSASYRYSGVPSRFSGSGSGTDFTLTISSLQPEDFATYYCQQYNNYPYTFGCGTKVEIKGGGDKTHTCPPCPAPELLGGPSVFLFPPKPKDTLYITREPEVTCVVVDVSHEDPEVKFNWYVDGVEVHNAKTKPREEQYNSTYRVVSVLTVLHQDWLNGKEYKCKVSNKALPAPIEKTISKAKGQPREPQVYTLPPSRDELTKNQVSLTCLVKGFYPSDIAVEWESNGQPENNYKTTPPVLDSDGSFFLYSKLTVDKSRWQQGNVFSCSVMHEALHNHYTQKSLSLSPGK
light: DIVLTQSPDSLAVSLGERATINCKASQSVDYDGDSYMTWYQQKPGQPPKLLIYAASHLDSGIPDRFSGSGSGTDFTLTISSLQAEDVAVYYCQQSNEDPWTFGGGTKVEIKRTVAAPSVFIFPPSDEQLKSGTASVVCLLNNFYPREAKVQWKVDNALQSGNSQESVTEQDSKDSTYSLSSTLTLSKADYEKHKVYACEVTHQGLSSPVTKSFNRGEC
notes: Format 2+2, anti-PACAP Fab (P14H2L3) and anti-CGRP scFv (C21H5L3), IgG1 (YTE) Fc; also called Biotin-CP-1
B4: CP-2 (bispecific antibody)
heavy: EVQLVESGGGLVQPGGSLRLSCAASGFAFNNYDMSWVRQAPGKGLEWVATITGGGSYTWYPDSVKGRFTISRDNAKNSLYLQMNSLRAEDTAVYYCARLTGYDQAGAMDYWGQGTTVTVSSASTKGPSVFPLAPSSKSTSGGTAALGCLVKDYFPEPVTVSWNSGALTSGVHTFPAVLQSSGLYSLSSVVTVPSSSLGTQTYICNVNHKPSNTKVDKKVEPKSCEVQLVQSGAEVKKPGASVKVSCKASGYTFTDYYMNWVRQAPGQCLEWMGDINPNTGVTTYNQKFKGRVTITVDKSASTAYMELSSLRSEDTAVYYCASIIIVPDYFDYWGQGTTVTVSSGGGGSGGGGSGGGGSDIQMTQSPSSVSASVGDRVTITCKASQNVGSNVAWYQQKPGKSPKALIYSASYRYSGVPSRFSGSGSGTDFTLTISSLQPEDFATYYCQQYNSYPYTFGCGTKVEIKGGGDKTHTCPPCPAPELLGGPSVFLFPPKPKDTLYITREPEVTCVVVDVSHEDPEVKFNWYVDGVEVHNAKTKPREEQYNSTYRVVSVLTVLHQDWLNGKEYKCKVSNKALPAPIEKTISKAKGQPREPQVYTLPPSRDELTKNQVSLTCLVKGFYPSDIAVEWESNGQPENNYKTTPPVLDSDGSFFLYSKLTVDKSRWQQGNVFSCSVMHEALHNHYTQKSLSLSPGK
light: B3 light
notes: Format 2+2, anti-PACAP Fab (P14H2L3) and anti-CGRP scFv (C28H8L2), IgG1 (YTE) Fc; also called Biotin-CP-2
B5: CP-3 (bispecific antibody, human IgG1, kappa)
heavy 1: EVQLVESGGGLVQPGGSLRLSCAASGFAFNNYDMSWVRQAPGKGLEWVATITGGGSYTWYPDSVKGRFTISRDNAKNSLYLQMNSLRAEDTAVYYCARLTGYDQAGAMDYWGQGTTVTVSSASTKGPSVFPLAPSSKSTSGGTAALGCLVKDYFPEPVTVSWNSGALTSGVHTFPAVLQSSGLYSLSSVVTVPSSSLGTQTYICNVNHKPSNTKVDKKVEPKSCDKTHTCPPCPAPELLGGPSVFLFPPKPKDTLYITREPEVTCVVVDVSHEDPEVKFNWYVDGVEVHNAKTKPREEQYNSTYRVVSVLTVLHQDWLNGKEYKCKVSNKALPAPIEKTISKAKGQPREPQVYTLPPCRDELTKNQVSLWCLVKGFYPSDIAVEWESNGQPENNYKTTPPVLDSDGSFFLYSKLTVDKSRWQQGNVFSCSVMHEALHNHYTQKSLSLSPGK
light 1: B3 light
heavy 2: EVQLVQSGAEVKKPGASVKVSCKASGYTFTDYYMNWVRQAPGQRLEWMGDINPNTGVTTYNQKFKGRVTITVDKSASTAYMELSSLRSEDTAVYYCASIIIVPDYFDYWGQGTTVTVSSGGGGSGIPPKIECLPIDISIDEGKVLTVASAFTGEPTPEVTWSTGGRKIHSQEQGRFHIENTDDSTTLTIKDVQKQDGGLYTLTLRNEFGSDSATVNIHIRSIDKTHTCPPCPAPELLGGPSVFLFPPKPKDTLYITREPEVTCVVVDVSHEDPEVKFNWYVDGVEVHNAKTKPREEQYNSTYRVVSVLTVLHQDWLNGKEYKCKVSNKALPAPIEKTISKAKGQPREPQVCTLPPSRDELTKNQVSLSCAVKGFYPSDIAVEWESNGQPENNYKTTPPVLDSDGSFFLVSKLTVDKSRWQQGNVFSCSVMHEALHNHYTQKSLSLSPGK
light 2: DIQMTQSPSSVSASVGDRVTITCKASQNVGSNVAWYQQKPGKSPKALIYSASYRYSGVPSRFSGSGSGTDFTLTISSLQPEDFATYYCQQYNSYPYTFGGGTKVEIKGGGGSSGAPRFLTRPKASVVSVGKDATLSCQIVGNPFPQVSWEKDKQPVTAGVRFRLAQDGDLYRLKILDLQLSDSGQYVCRARNAHGEAFACLGLQVDAEA
notes: Format 1+1, anti-PACAP Fab (P14H2L3) and anti-CGRP Titin/Obscurin Fab (C28H6L1), knob-into-hole IgG1 (YTE) Fc; also called Biotin-CP-3

The target of one assay is T1, human CGRP (human, UniProt P06881 83-119).
T1 peptide (looked up): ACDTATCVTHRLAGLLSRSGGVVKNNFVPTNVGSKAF
Briefly: ELISA, coated CGRP. (In general: An ELISA detects its analyte on a solid surface through an enzyme-linked reagent.)
Consider B1, for which the EC50 was 2.3 nM.
In the case of B2, the concentration giving a half-maximal response (EC50) worked out at 1.26 nM.

In the next assay the target is T2, rat CGRP (rat, UniProt P01256 83-119).
T2 peptide (looked up): T1 peptide (looked up) with A1S, D3N, N25D, K35E
Briefly: ELISA, coated CGRP.
Turning to B1, the 50% effective concentration (EC50) came to 4.26 nM.
In turn, B2 gave a 50% effective concentration (EC50) of 5.29 nM.

Another assay addresses T1, human CGRP. Briefly: SPR, Biacore 8K, 25 C, biotinylated antibody on SA chip, 1:1 model. The method, then: First, the test antibodies ([…] for the mAbs and 4 μg/mL for the diabodies), biotinylated (indicated by Biotin-), were each coupled onto an SA biosensor chip. Then samples of the antigen human CGRP were sequentially injected in ascending order for 180 s, followed by dissociation. After the test was finished, fitting was performed using a 1:1 binding model.
(In general: In SPR one partner is held on a chip, and binding of the other changes the refractive index at the surface.)
In turn, B3 returned a Kd of 0.00715 nM, a dissociation rate constant (koff) of 1.77e-05 s⁻¹ and an on-rate constant (kon) of 2.48e+06 M⁻¹ s⁻¹.
The corresponding values for B4 are 0.0117 nM, 2.35e-05 s⁻¹ and 2e+06 M⁻¹ s⁻¹.
The corresponding values for B5 are 0.00764 nM, 3.31e-05 s⁻¹ and 4.34e+06 M⁻¹ s⁻¹.
Turning to B1, binding was characterised by a dissociation constant (Kd) of 0.00381 nM, the koff came out at 1.92e-05 s⁻¹ and the kon stood at 5.04e+06 M⁻¹ s⁻¹.
Molecule B2 registered a Kd of 0.00479 nM, an off-rate constant (koff) of 2.41e-05 s⁻¹ and an on-rate constant (kon) of 5.03e+06 M⁻¹ s⁻¹.

The target in the next assay is T3, PACAP27 (UniProt P18509 132-158, biotinylated in the ELISAs).
T3 peptide (looked up): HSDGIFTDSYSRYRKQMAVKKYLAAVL
Briefly: ELISA, antibody on coated anti-human Fc, biotinylated peptide. On the procedure:
(§1) Plates were coated with 1 μg/mL anti-human Fc and blocked, and the antibodies, serially diluted, were added. […] The plates were incubated for 1 h and washed, and a horseradish peroxidase-labeled streptavidin secondary antibody was then added. After incubation, color development was performed.
The molecule B3 came in with an EC50 of 0.28 nM.
The molecule B4 yielded a concentration giving a half-maximal response (EC50) of 0.16 nM.
On the same count and under the same terms, the result for B5 reads 0.33 nM.

The target of the next assay is T4, PACAP38 (UniProt P18509 132-169, biotinylated in the ELISAs).
T4 peptide (looked up): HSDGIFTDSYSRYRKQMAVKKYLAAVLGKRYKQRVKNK
The description is as above. On the procedure:
as §1
On to B3, for which the 50% effective concentration (EC50) is 0.15 nM.
With B4, the concentration giving a half-maximal response (EC50) was determined as 0.1 nM.
B5: the EC50 was determined as 0.22 nM.

The target of another assay is CGRP. Briefly: cell-based or functional assay.
As to B1, the “IC50, inhibition of cAMP production in SK-N-MC cells” value (“IC50, inhibition … in SK-N-MC cells” below) was 1.25 nM.
As for B2, the “IC50, inhibition … in SK-N-MC cells” value was found to be 2.49 nM.

The target in a further assay is T4, PACAP38. Briefly: cell-based or functional assay.
Take B3: the “IC50, inhibition of cAMP production in SH-SY5Y cells” value (shortened to “IC50, inhibition … in SH-SY5Y cells”) worked out at 4.31 nM.
For the molecule B4, the “IC50, inhibition … in SH-SY5Y cells” value stood at 1.92 nM.
As for B5, the “IC50, inhibition … in SH-SY5Y cells” value turned out to be 11 nM.

The target of another assay is CGRP. Briefly: cell-based or functional assay. This is another data set of the same source.
As to B3, the “IC50, inhibition … in SK-N-MC cells” value was 2.66 nM.
The same measure, in the same setting: the result for B4 reads 2.03 nM.
In the case of B5, the “IC50, inhibition … in SK-N-MC cells” value worked out at 5.79 nM.
In the case of B1, the “IC50, inhibition … in SK-N-MC cells” value came to 1.98 nM.
With B2, the “IC50, inhibition … in SK-N-MC cells” value was determined as 1.61 nM.

The next assay concerns the target T2, rat CGRP. Briefly: SPR, Biacore 8K, antibody captured on Protein A chip, 1:1 model. On the procedure:
A Protein A biosensor chip was used to affinity-capture IgG, and a molecule sample was then allowed to flow through the surface of the chip. Reaction signals were detected in real time using a Biacore 8K system to obtain association and dissociation curves. After the dissociation in each experimental cycle was complete, the biosensor chip was washed and regenerated 3 times with 50 mM NaOH. Data fitting was performed using a 1:1 model.
B3 had a Kd of 0.778 nM, an off-rate (koff) of 0.00116 s⁻¹ and an on-rate constant (kon) of 1.5e+06 M⁻¹ s⁻¹.
The corresponding values for B4 are 0.358 nM, 0.000743 s⁻¹ and 2.07e+06 M⁻¹ s⁻¹.
Take B5: binding was characterised by a dissociation constant (Kd) of 0.0897 nM, the off-rate constant (koff) was determined as 0.000301 s⁻¹ and the on-rate (kon) came out at 3.35e+06 M⁻¹ s⁻¹.
Molecule B1 displayed an equilibrium dissociation constant (Kd) of 0.103 nM, a koff of 0.000232 s⁻¹ and an association rate constant (kon) of 2.25e+06 M⁻¹ s⁻¹.
The like results for B2 were, in that order, 0.0674 nM, 0.000139 s⁻¹ and 2.06e+06 M⁻¹ s⁻¹.

The values are drawn from patent publication US20260176358A1 (JIANGSU HENGRUI PHARMACEUTICALS, published 2026).
